Reference: patent US8173598B2, “Myeloid protein activation of anti-inflammatory and anti-hypoxic pathway” (The Board of Trustees of the University of Illinois, priority 2008, dated 2012)

Columns and labels:
wound bacterial load = assay type: in vivo, SKH-1 mice
Protocol: (§1) The restraint stress protocol is based on established procedures (Gajendrareddy et al., 2005; Mercado et al., 2002; Padgett et al., 1998). Restraint was initiated 3 days before wounding. Restraint stress (RST) in this model consists of confinement of mice within loosely fitting, well-ventilated 50 ml conical tubes for a period of 12-14 hours during their active nocturnal cycle. Animals were subjected to restraint for an additional five cycles on the day of wounding and for four days thereafter, then stress was discontinued.
(§2) For treatment of wounds, S100A8 and mutant ala^42S100A8 were produced, cleaved and purified from a GST fusion construct as previously described (Tugizov et al., 2005) (Sroussi et al., 2006). The endotoxin levels in the recombinant protein preparations were below 1 ng/μg of proteins as measured by the Limulus amoebocyte lysate assay (LAL) (Associates of Cape Cod, Falmouth, Mass.). Solutions of S100 proteins at a concentration of 1 μg/ml were used for those experiments. Introduction of S100A8 protein or control saline vehicle were conducted through local injection intradermally of 25 μl solution in the tissue surrounding the wounds with the help of Micro-Fine IV syringes 28G1/2 (Becton Dickinson, Franklin Lakes, N.J.). Careful wound manipulation ensured no direct disruption of the wound site. An additional 10 μl solution was applied directly to the wounds.
Wound biopsies were performed to evaluate bacterial clearance. Mice were anesthetized as described above. The dorsal area was cleaned with Betadine and a uniform, full-thickness wound located on the dorsum just below the shoulder blades was created with a sterile 6.0-mm punch (Miltex Instrument Company).
Wound infection was assessed with measurement of bacterial load at the wound site by methods adapted from Rojas (Rojas et al., 2002). At day 1 and day 5 post-wounding, mice were euthanized; wounds were collected with a 6-mm punch (see above) and homogenized in 1 ml of sterile PBS. Homogenates were serially diluted (1:10); plated in duplicate on BHI agar, and incubated for 15 h. Bacterial colonies were counted.

neutrophils = conditions: conditions that inhibit wild type S100A8; cited from earlier work
[1] = test system: recruitment of neutrophils; conditions: rat air-pouch; Sroussi et al., 2006; cited from earlier work
[2] = test system: excisional cutaneous wounds; experiment: Wound closure in the SKH-1 restraint stress model; assay type: in vivo, SKH-1 mice
Source text: This protocol was approved by the Committee on Animal Research at the University of Illinois at Chicago. Virus antibody-free, female SKH-1 mice, 5-6 weeks of age, were purchased from Charles River, Inc (Wilmington, Mass.). The animals were allowed to acclimate to the animal facility for at least one week prior to experimental procedures.
as §1
For excisional wounds, mice were anesthetized with a single 0.25 ml intraperitoneal injection of Ketaset solution (Aveco, Fort Dodge, Iowa) at a concentration of 7.8 mg/ml, plus Rompum (Haver-Lockhart, Shawnee, Kans.) at 0.44 mg/ml. Each animal received two standardized circular cutaneous wounds with 3.5 mm punch (Miltex Instrument Company), placed just behind the shoulder blades with a biopsy punch.
as §2
Measurement of Wound Sizes was done as follows. Beginning on the day of wounding (day 0), each animal's wounds were photographed daily until day 5 post-wounding. Photographs of the wound were obtained with a standard-sized dot placed next to the site. Digitized photographs were analyzed using photoplanimetry (Marucha et al., 1998). An investigator blinded to treatment group and day of photograph measured wound size. Wound size was expressed as the percentage of the wound area determined on every post-wounding day, compared with the original wound area.

B1: ala^42S100A8: oxidation-resistant analog of S100A8 engineered using site-directed mutagenesis (cysteine 42 replaced with alanine) (protein, UniProt P05109 1-93, looked up, variant C42A)
Protein S100-A8: MLTELEKALNSIIDVYHKYSLIKGNFHAVYRDDLKKLLETEAPQYIRKKGADVWFKELDINTDGAVNFQEFLILVIKMGVAAHKKSHEESHKE
- wound bacterial loads, stressed mice, day 1 (wound bacterial load; RST mice, day 1, vs saline treated stressed mice): statistically significant reduction in bacterial loads
- wound bacterial loads, stressed mice, day 5 (wound bacterial load; RST mice, day 5, vs saline treated stressed mice): statistically significant reduction in bacterial loads
- wound bacterial counts, FWD mice, day 1 (wound bacterial load; mouse, in vivo): statistically significant increase in wound bacterial counts
- wound bacterial counts, FWD mice, day 5 (wound bacterial load; mouse, in vivo): bacterial counts had reverted to control values
- chemo-repulsive activity under oxidative conditions (neutrophils): retains its chemo-repulsive activity under oxidative conditions
- recruitment of neutrophils stimulated by bacterial endotoxins [1]: inhibits the recruitment of neutrophils stimulated by bacterial endotoxins
- wound closure in non-stressed animals with daily treatment ([2]; FWD mice, daily treatment, vs daily saline): significant delay in wound closure starting at day 4 post-wounding
- wound closure rates in non-stressed control animals ([2]; FWD mice, single application): normal wound closure rates
- wound closure rates with daily injections ([2]; daily administration to the wounds): did not result in the amelioration of wound closure rates
- wound closure rate in stressed animals ([2]; restraint stressed (RST) mice, single local treatment immediately after wounding): closure rate similar to the closure rates observed in the non stressed food and water deprived (FWD) group
- average wound size in stressed animals vs saline ([2]; restraint stressed (RST) mice, single local treatment immediately after wounding, from day 2 on): significantly smaller than the average wound size in stressed animals treated with saline
